Experiment [1] deals with T1, biotinylated human MIGIS-α peptide (human, biotinylated).
T1 peptide: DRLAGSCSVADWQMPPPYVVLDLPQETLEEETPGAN
The experiment in a line: SPR, OAA format. In general terms: In SPR one partner is held on a chip, and binding of the other changes the refractive index at the surface.

The target of experiment [2] is T2, biotinylated cyno MIGIS-α peptide (cynomolgus monkey).
T2 construct: domain: MIGIS-α
The experiment in a line: SPR, OAA format.

The target in experiment [3] is T3, human membrane IgA overexpressed on Ramos cells (human).
T3 construct: its MIGIS-α segment is the short form; also called IgA^+ Ramos; human IgA^+ RAMOS cells
T3 sequence (heavy, as listed by the source): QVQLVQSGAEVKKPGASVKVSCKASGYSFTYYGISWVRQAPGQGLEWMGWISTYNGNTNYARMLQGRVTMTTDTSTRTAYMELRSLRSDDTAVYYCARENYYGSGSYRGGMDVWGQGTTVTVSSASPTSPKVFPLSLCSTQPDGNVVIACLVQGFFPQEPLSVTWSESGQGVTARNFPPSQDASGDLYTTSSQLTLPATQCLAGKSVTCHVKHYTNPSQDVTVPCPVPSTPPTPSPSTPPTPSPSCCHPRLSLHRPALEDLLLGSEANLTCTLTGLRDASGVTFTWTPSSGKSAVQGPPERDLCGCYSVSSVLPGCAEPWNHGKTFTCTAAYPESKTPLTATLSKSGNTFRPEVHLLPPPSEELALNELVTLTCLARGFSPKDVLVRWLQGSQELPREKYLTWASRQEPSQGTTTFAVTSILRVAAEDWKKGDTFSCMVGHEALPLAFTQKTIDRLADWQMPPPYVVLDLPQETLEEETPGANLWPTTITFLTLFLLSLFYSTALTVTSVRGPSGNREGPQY
The experiment in a line: flow cytometry on IgA Ramos cells, OAA format; reference. Background: In flow cytometry, cells or beads pass a laser one at a time.

Experiment [4] has as its target T1, biotinylated human MIGIS-α peptide. Description: SPR (Biacore T200, 37 C), biotinylated peptide captured, OAA as analyte, 1:1 fit.
The target of experiment [5] is T2, biotinylated cyno MIGIS-α peptide. The experiment is described as above.
The target of experiment [6] is T4, parental (IgA^-) Ramos cell line, which expresses only cell surface IgM (UniProt P01871 1-474).
T4 construct: whole, on cells; Negative control cells without membrane IgA; also called mIgA negative Ramos cells; parental Ramos
T4 sequence (P01871 whole entry): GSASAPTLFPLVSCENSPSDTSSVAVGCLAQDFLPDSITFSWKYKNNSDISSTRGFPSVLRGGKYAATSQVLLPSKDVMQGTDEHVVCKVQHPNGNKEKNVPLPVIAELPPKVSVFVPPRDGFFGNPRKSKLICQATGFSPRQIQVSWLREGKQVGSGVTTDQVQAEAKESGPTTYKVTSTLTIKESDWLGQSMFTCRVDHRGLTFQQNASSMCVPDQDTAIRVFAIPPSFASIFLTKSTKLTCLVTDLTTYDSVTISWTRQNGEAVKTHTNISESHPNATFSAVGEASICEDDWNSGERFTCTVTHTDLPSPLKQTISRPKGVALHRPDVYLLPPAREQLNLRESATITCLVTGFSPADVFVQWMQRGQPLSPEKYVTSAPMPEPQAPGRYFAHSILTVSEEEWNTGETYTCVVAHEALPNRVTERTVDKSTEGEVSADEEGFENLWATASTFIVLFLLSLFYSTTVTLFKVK
The experiment in a line: flow cytometry on parental Ramos cells.

Experiment [7] has as its target T3, human membrane IgA overexpressed on …. Description: flow cytometry, cell binding on IgA+ Ramos cells; fit table under the plot.
Experiment [8] shares this target. The experiment in a line: flow cytometry, cell binding on IgA+ Ramos cells; fit table under the plot, unit from the y axis (gMFI minus secondary only).
The target in a further experiment is T5, Long MIGIS-α form (human).
T5 construct: fused to the N-terminus of the VH of Fab-0027 in the crystal; also called long MIGIS-α peptide; Long Form
T5 peptide: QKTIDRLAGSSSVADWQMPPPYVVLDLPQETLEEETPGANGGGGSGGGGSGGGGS
The experiment in a line: crystal structure.

A further experiment deals with T6, Short MIGIS-α form (human).
T6 construct: fused to the N-terminus of the VH of Fab-0027 in the crystal; also called Short Form
T6 peptide: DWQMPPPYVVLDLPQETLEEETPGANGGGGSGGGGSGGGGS
Description: crystal structure.

For experiment [9], the target named is T3, human membrane IgA overexpressed on …. Description: flow cytometry on IgA+ Ramos cells.
For experiment [10] the target is unchanged. Description: flow cytometry, cell binding on IgA+ Ramos cells; fit table under the plot (the text prints 2.9 nM).
Experiment [11] concerns the target recombinant human CD3 epsilon (human, UniProt P07766 23-126, limits assumed). Description: SPR.
For experiment [12], the target named is T7, human membrane IgA (mIgA), endogenously expressed on primary B cells and DAKIKI cells (human, UniProt P01876 1-398). The experiment in a line: cell-based or functional assay.
T7 sequence (P01876 whole entry): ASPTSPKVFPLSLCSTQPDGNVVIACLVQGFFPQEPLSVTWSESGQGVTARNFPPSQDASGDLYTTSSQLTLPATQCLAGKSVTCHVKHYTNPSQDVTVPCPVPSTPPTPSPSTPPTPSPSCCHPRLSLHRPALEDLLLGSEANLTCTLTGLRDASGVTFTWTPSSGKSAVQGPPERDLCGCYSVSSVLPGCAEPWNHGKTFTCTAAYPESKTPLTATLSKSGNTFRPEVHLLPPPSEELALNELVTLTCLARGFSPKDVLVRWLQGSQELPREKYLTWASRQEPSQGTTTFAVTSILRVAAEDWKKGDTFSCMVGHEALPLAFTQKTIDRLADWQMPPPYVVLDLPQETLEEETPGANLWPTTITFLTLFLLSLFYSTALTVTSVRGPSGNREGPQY
In experiment [13] the target is cynomolgus monkey membrane IgA (cynomolgus monkey). Description: cell-based or functional assay.
In experiment [14] the target is T7, human membrane IgA (mIgA), endogenously …. Description: cell-based or functional assay. The source holds these as a separate data set.
The target is the same in experiment [15]. The experiment in a line: cell-based or functional assay. This is another data set of the same source.
Experiment [16] concerns the target T3, human membrane IgA overexpressed on …. Description: flow cytometry on human IgA+ Ramos cells, mean of 3 experiments.
Experiment [17] has as its target T7, human membrane IgA (mIgA), endogenously …. Description: flow cytometry on primary human IgA+ memory B cells, mean of 3 donors.
For experiment [18], the target named is T4, parental (IgA^-) Ramos cell line, which …. Description: flow cytometry on parental Ramos cells (IgM only), MFI minus background.
Experiment [19] has as its target T8, membrane IgD on human IgD^+ (IgA^-) primary B cells (human, UniProt P01880 1-430).
T8 construct: whole, on cells; Negative control cell population without membrane IgA; also called CD19^+, IgD^+ B cell populations; IgD cells
T8 sequence (heavy, looked up): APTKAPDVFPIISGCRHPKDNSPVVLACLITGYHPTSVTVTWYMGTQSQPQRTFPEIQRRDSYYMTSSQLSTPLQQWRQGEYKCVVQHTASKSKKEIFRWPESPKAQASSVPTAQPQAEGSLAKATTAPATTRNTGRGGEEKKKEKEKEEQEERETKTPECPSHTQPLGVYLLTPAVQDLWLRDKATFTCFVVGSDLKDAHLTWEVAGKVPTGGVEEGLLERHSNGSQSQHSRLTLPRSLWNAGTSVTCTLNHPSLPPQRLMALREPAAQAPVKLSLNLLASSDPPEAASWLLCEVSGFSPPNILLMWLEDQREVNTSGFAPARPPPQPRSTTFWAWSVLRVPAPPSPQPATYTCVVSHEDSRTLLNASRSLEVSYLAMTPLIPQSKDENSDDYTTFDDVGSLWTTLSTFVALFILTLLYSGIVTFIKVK
Description: flow cytometry on primary human B cells, gate IgD+ CD19+, MFI minus background.

Sequence of recombinant human CD3 epsilon (P07766 23-126 limits assumed): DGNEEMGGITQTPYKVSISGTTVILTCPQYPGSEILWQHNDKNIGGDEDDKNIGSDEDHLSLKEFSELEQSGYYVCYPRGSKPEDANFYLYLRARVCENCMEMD

B1: GBT-IgA-0071 (T18 in one armed format) (antibody)
heavy: not shown
chain: EPKSSDKTHTCPPCPAPEAAGAPSVFLFPPKPKDTLMISRTPEVTCVVVDVSHEDPEVKFNWYVDGVEVHNAKTKPREEQYNSTYRVVSVLTVLHQDWLNGKEYKCKVSNKALPAPIEKTISKAKGQPREPQVYTLPPCREEMTKNQVSLSCAVKGFYPSDIAVEWESNGQPENNYKTTPPVLDSDGSFFLVSKLTVDKSRWQQGNVFSCSVMHEALHNRYTQKSLSLSPGK
light: not shown
notes: One-armed antibody; also called T18 OAA
A word on the Kd: it is the equilibrium constant for the complex coming apart. For orientation: koff means a measure of how fast the partners let go of each other. For orientation: kon means the second-order rate constant of association. For the molecule B1, the “fold improved affinity over GBT-IgA-0070 (H05 OAA)” value in experiment [1] is approximately 20 fold. Moreover, the “fold improved binding over GBT-IgA-0070 (H05 OAA)” value in [2] is approximately 5 fold. Also, the “Fold Diff EC50 (OAA format in IgA Ramos by FLOW)” value in [3] amounted to 1 fold. In experiment [4], this molecule showed a Kd of 10.7 nM, an off-rate (koff) of 0.0316 s⁻¹ and a kon of 2.96e+06 M⁻¹ s⁻¹. In experiment [5], this molecule had a Kd of 11.9 nM, a koff of 0.0132 s⁻¹ and a kon of 1.1e+06 M⁻¹ s⁻¹.

B2: GBT-IgA-0033 (H05) (antibody, V domains shown)
VH: QVQLVESGGGVVQPGRSLRLSCAASGFTFSSYGMHWVRQAPGKGLEWVAVISYDGSNKYYADSVKGRFTISRDNSKNTLYLQMNSLRAEDTAVYYCAKLYGGNPEDAIDYWGRGTLVTVSS
VL: not shown
notes: Parental clone from naive library; huIgG1; also called HOS
Usually EC50 stands for the concentration that produces a half-maximal response. Take B2: the binding result in experiment [6] is given as “no binding”. For the same molecule, the 50% effective concentration (EC50) in experiment [7] turned out to be 91.4 nM. Besides, in [8], the Top is 8440 gMFI.

B3: Fab of GBT-IgA-0027 (Fab-0027) (Fab, V domains shown)
VH: QVQLVESGGGVVQPGRSLRLSCAASGFTFSSYGMHWVRQAPGKGLEWVAVISYDGSNKYYADSVKGRFTISRDNSKNTLYLQMNSLRAEDTAVYYCAKLYGGNPKDTIYHWGRGTLVTVSS
VL: not shown
notes: Fab; constant parts not specified; antigen and Fab are written here as two molecules; also called VH-Fab-0027; T18 Fab
Regarding B3, the binding result with Long MIGIS-α form and in the experiment with Short MIGIS-α form was “binds” each time.

B4: GBT-IgA-0032 (T25) (antibody, V domains shown)
VH: QVQLVESGGGVVQPGRSLRLSCAASGFTFSSYGMHWVRQAPGKGLEWVAVISYDGSNKYYADSVKGRFTISRDNSKNTLYLQMNSLRAEDTAVYYCAKLYGGNPKDTIYHWGRGTLVTVSS
VL: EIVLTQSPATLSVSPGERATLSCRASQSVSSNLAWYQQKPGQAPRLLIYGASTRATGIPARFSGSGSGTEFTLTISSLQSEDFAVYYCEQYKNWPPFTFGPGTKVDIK
Regarding B4, the EC50 worked out at 2.9 nM in experiment [9] and 2.99 nM in experiment [10]. For the same molecule, the “fold MFI compared to H05” value in experiment [9] is approximately 4 fold. Besides, the binding result in experiment [6] was “no binding”. In addition, the Top in [8] was 33700 gMFI.

B5: BMD-IgA-1156 (anti-CD3 binding arm h2B5v6) (antibody, V domains shown)
VH: EVQLVESGGGLVQPGGSLRLSCAASGFTFSDYYMTWVRQAPGKGLEWVAFIRNQARGYTSDHNPSVKGRFTISRDNAKNSLYLQMNSLRAEDTAVYYCARDRPSYYVLDYWGQGTTVTVSS
VL: DIQMTQSPSSLSASVGDRVTITCTSSQSLFNVRSQKNYLAWYQQKPGKAPKLLIYWASTRESGVPSRFSGSGSGTDFTLTISSLQPEDFATYYCKQSYDLFTFGGGTKVEIKR
notes: Only the anti-CD3 chains are tied to this name
Turning to B5, the Kd in experiment [11] was found to be 17 nM.

B6: GBT-IgA-1602, anti-MIGIS-α/CD3 bispecific antibody (bispecific antibody)
heavy 1: not shown
light 1: not shown
heavy 2: EVQLVESGGGLVQPGGSLRLSCAASGFTFSDYYMTWVRQAPGKGLEWVAFIRNQARGYTSDHNPSVKGRFTISRDNAKNSLYLQMNSLRAEDTAVYYCARDRPSYYVLDYWGQGTTVTVSSASTKGPSVFPLAPSSKSTSGGTAALGCLVKDYFPEPVTVSWNSGALTSGVHTFPAVLQSSGLYSLSSVVTVPSSSLGTQTYICNVNHKPSNTKVDKKVEPKSCEKTHTCPPCPAPEAAGAPSVFLFPPKPKDTLMISRTPEVTCVVVDVSHEDPEVKFNWYVDGVEVHNAKTKPREEQYNSTYRVVSVLTVLHQDWLNGKEYKCKVSNKALPAPIEKTISKAKGQPREPQVYTLPPSREEMTKNQVSLTCEVKGFYPSDIAVEWESNGQPENNYKTTPPVLDSDGSFFLYSKLTVDKSRWQQGNVFSCSVMHEALHNHYTQKSLSLSPGK
light 2: DIQMTQSPSSLSASVGDRVTITCTSSQSLFNVRSQKNYLAWYQQKPGKAPKLLIYWASTRESGVPSRFSGSGSGTDFTLTISSLQPEDFATYYCKQSYDLFTFGGGTKVEIKRTVAAPSVFIFPPSDEQLKSGTASVVCLLNNFYPREAKVQWKVDNALQSGNSQESVTEQDSKDSTYSLSSTLTLSKADYEKHKVYACEVTHQGLSSPVTKSFNRGEC
Take B6: in experiment [12], the “Primary cell killing, potency EC50 (nM), human memory B cells (membrane IgA+)” value came out at 0.73 nM and the “Primary cell killing, potency EC50 (nM), human plasma cells (IgA secreting)” value amounted to 1.67 nM. Further, in experiment [13], the “Primary cell killing, potency EC50 (nM), cyno memory membrane IgA+” value was 0.19 nM and the “Primary cell killing, potency EC50 (nM), cyno soluble plasma cells (IgA secreting)” value was 1.34 nM. For the same molecule, the “EC50 (nM), IgA^+ memory B cell kill” value in [14] stood at 0.587 nM. Further, in [15], the “EC50 (nM), IgA producing B cell kill” value stood at 1.5 nM. In [16], the half-maximal effective concentration (EC50) is 40.5 nM. Besides, the EC50 in experiment [17] is 49.8 nM. The binding result in experiment [18] is given as “no binding (tested: about 300 nM)”. For the same molecule, the binding result in experiment [19] is given as “no binding (tested: about 500 nM)”.

Values taken from patent US20250154287A1 (Pfizer, published 2025).
